This is an account of results in patent publication US20260078185A1 (DYNAMICURE BIOTECHNOLOGY, published 2026).

The target in test [1] is T1, mouse VISTA recombinant protein (Sino Biological Inc., Cat. #51550-M08H), biotinylated (mouse, UniProt Q9D659 33-191, biotinylated using EZ-LINK NHS-PEG4 biotin).
T1 construct: Bought protein; also called mouse VISTA protein
T1 sequence (looked up): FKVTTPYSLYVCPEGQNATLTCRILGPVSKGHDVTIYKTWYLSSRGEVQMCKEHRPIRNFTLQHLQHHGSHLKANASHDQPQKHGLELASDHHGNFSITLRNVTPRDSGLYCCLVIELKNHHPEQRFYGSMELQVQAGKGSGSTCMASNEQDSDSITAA
The test is described as follows: BLI (Octet QKe), biotinylated VISTA on streptavidin sensors; the parental antibody is the affinity comparator. How it is done: (§1) Method: The binding affinity of anti-VISTA antibodies was determined with bio-layer interferometry using Octet QKe (ForteBio). Human VISTA recombinant protein (Sino Biological Inc., Cat. #13482-H08H) mouse VISTA (Sino Biological Inc., Cat. #51550-M08H) were biotinylated using EZ-LINK NHS-PEG4 biotin (Thermo Fisher Scientific). Streptavidin biosensors (ForteBio) were used to load biotinylated VISTA protein (300 seconds at 5 μg/ml). The baseline measurement was stabilized for 60 seconds in 1× kinetics buffer (ForteBio) before anti-VISTA antibodies at 5 μg/ml were allowed to associate for 300 seconds with captured protein. Then the sensors were dissociated in 1× kinetics buffer for 600 seconds. Data analysis was performed on ForteBio Data Analysis HT 11.1 software.
A general note: BLI is a label-free optical method that tracks binding on a fibre tip over time.

The target of test [2] is T2, Human VISTA recombinant protein (Sino Biological Inc., Cat. #13482-H08H), biotinylated (human, UniProt Q9H7M9 33-194, biotinylated using EZ-LINK NHS-PEG4 biotin).
T2 construct: Bought protein
T2 sequence: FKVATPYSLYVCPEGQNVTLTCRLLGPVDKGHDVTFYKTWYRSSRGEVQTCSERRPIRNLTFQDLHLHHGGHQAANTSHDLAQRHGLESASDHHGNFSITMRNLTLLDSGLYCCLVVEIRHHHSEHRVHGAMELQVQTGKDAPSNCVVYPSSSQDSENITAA
Description: BLI (Octet QKe), biotinylated VISTA on streptavidin sensors, antibody at 5 µg/ml. On the procedure:
as §1

In test [3] the target is T3, mouse VISTA expressed on Jurkat cells (mouse, UniProt Q9D659 33-308).
T3 construct: whole, on cells; also called Jurkat-mouse VISTA; mouse VISTA expressing cells
T3 sequence (looked up): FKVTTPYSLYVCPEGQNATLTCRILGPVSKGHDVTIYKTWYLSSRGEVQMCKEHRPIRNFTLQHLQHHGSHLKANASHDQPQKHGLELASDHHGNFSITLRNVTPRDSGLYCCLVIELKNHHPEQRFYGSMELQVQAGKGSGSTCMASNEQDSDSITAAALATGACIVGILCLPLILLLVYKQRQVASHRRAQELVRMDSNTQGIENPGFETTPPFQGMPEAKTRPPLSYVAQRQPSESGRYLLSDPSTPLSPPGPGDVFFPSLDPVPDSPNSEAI
The test is described as follows: flow cytometry on Jurkat cells expressing mouse VISTA (FIG. 3A-D); the parental antibody is the binding comparator. (In general: In flow cytometry, cells or beads pass a laser one at a time.)

Test [4] deals with T1, mouse VISTA recombinant protein (Sino …). The test is described as follows: BLI (Octet QKe), biotinylated VISTA on streptavidin sensors, antibody at 5 µg/ml. On the procedure:
as §1

For test [5], the target named is T3, mouse VISTA expressed on Jurkat cells. The test is described as follows: flow cytometry on Jurkat cells expressing mouse VISTA (FIG. 3E).

B1: 9F9 parental anti-VISTA antibody (VH0/VL0) (antibody, V domains shown)
VH: QVQFQQSGAELARPGASVKLSCKASGYTFTGYWMQWVKQRPGQGLEWIGAIYPGDGDTRYSQKFKGKVTLTADKSSSTAYMQLSSLASEDSAVYYCARRDYGAWFAYWGQGTLVTVSA
VL: DIKVTQSPSSMYASLGERVTITCKASQDINSYLSWFQQKPGKSPKTLIYRANRLVDGVPSRFSGSGSGQDYSLTISSLDYEDMGIYYCLQYDEFPYTFGGGTKLEIK
notes: also called 9E9 parental antibody; parental 9F9 (VH0/VL0)
As to B1, the binding result in test [1], in test [2] and in test [3] was “binds” each time.

B2: 9F9 humanized anti-VISTA antibody VH7/VL7 (antibody, V domains shown)
VH: QVQFVQSGAEVKKPGASVKVSCKASGYTFTGYWMQWVKQAPGQRLEWIGAIYPGDGDTRYSQKFKGKVTLTADTSASTAYMELSSLRSEDTAVYYCARRDYGAWFAYWGQGTLVTVSS
VL: DIKVTQSPSSLSASVGDRVTITCKASQDINSYLSWYQQKPGKAPKTLIYRANRLVDGVPSRFSGSGSGQEYTLTISSLQPEDFATYYCLQYDEFPYTFGQGTKVEIK
notes: also called 9E9 anti-VISTA VH7/VL7
Consider B2, for which the binding result in test [4] is “binds”.

B3: 9F9 humanized anti-VISTA antibody VH9/VL9 (antibody, V domains shown)
VH: QVQFVQSGAEVKKPGSSVKVSCKASGYTFSGYWMQWVKQAPGQGLEWIGAIYPGDGDTRYSQKFKGKVTLTADESTSTAYMELSSLRSEDTAVYYCARRDYGAWFAYWGQGTLVTVSS
VL: DIKVTQSPSSLSASVGDRVTITCKASQDINSYLSWYQQKPGKAPKTLIYRANRLVDGVPSRFSGSGSGQDYTFTISSLQPEDIATYYCLQYDEFPYTFGQGTKVEIK
notes: also called 9E9 anti-VISTA VH9/VL9
For B3, the binding result in test [4] was “binds”.

B4: 9F9 humanized anti-VISTA antibody VH14/VL15 (antibody, V domains shown)
VH: QVQLVQSGAEVMKPGASVKISCKASGYTFTGYWMQWVRQRPGQGLEWIGAIYPGDGDTRYSQKFKGKATMTADTSISTAYMELSRLRSDDTAVYYCARRDYGAWFAYWGAGTTVTVSS
VL: DIVMTQSPSSLSASVGERVTITCKASQDINSYLSWFQQKPGKAPKTLIYRANRLVDGVPSRFSGSGSGTDFTFTISSVQPEDLAIYYCLQYDEFPYTFGGGTKLEIK
notes: also called 9E9 anti-VISTA VH14/VL15
B4: the binding result in test [4] is “binds”.

B5: 9F9 VH15/VL15 hIgG2 (antibody, V domains shown)
VH: QVQLVQSGAEVMKPGASVKLSCKASGYTFTGYWMQWVKQRPGQGLEWIGAIYPGDGDTRYSQKFKGKATMTADTSISTAYMELSRLRSDDSAVYYCARRDYGAWFAYWGAGTTVTVSS
VL: DIVMTQSPSSLSASVGERVTITCKASQDINSYLSWFQQKPGKAPKTLIYRANRLVDGVPSRFSGSGSGTDFTFTISSVQPEDLAIYYCLQYDEFPYTFGGGTKLEIK
notes: also called 9E9 VH15/VL15 using the IgG2 constant region
As to B5, in test [5], the binding result is recorded as “binds”.

B6: 9F9 VH15/VL15 hIgG1-LALA (antibody, V domains shown)
VH: QVQLVQSGAEVMKPGASVKLSCKASGYTFTGYWMQWVKQRPGQGLEWIGAIYPGDGDTRYSQKFKGKATMTADTSISTAYMELSRLRSDDSAVYYCARRDYGAWFAYWGAGTTVTVSS
VL: DIVMTQSPSSLSASVGERVTITCKASQDINSYLSWFQQKPGKAPKTLIYRANRLVDGVPSRFSGSGSGTDFTFTISSVQPEDLAIYYCLQYDEFPYTFGGGTKLEIK
notes: also called 9E9 VH15/VL15 using the humanized hIgG1-LALA constant region
As to B6, in test [5], the binding result is reported as “binds”.

B7: 9F9 humanized anti-VISTA antibody VH15/VL15 (antibody, V domains shown)
VH: QVQLVQSGAEVMKPGASVKLSCKASGYTFTGYWMQWVKQRPGQGLEWIGAIYPGDGDTRYSQKFKGKATMTADTSISTAYMELSRLRSDDSAVYYCARRDYGAWFAYWGAGTTVTVSS
VL: DIVMTQSPSSLSASVGERVTITCKASQDINSYLSWFQQKPGKAPKTLIYRANRLVDGVPSRFSGSGSGTDFTFTISSVQPEDLAIYYCLQYDEFPYTFGGGTKLEIK
notes: also called 9E9 anti-VISTA VH15/VL15
For B7, in test [4], the binding result was “binds”.
